From patent US20180258187A1
Where a chain is given by its changes, count along the chain named.

How the values were obtained:
[1] = target: EBV-LMP2 peptide/HLA-A*02:01 complex as naturally presented on HLA-A*02:01+ EBV+ cells (BLCL, tumour cell lines) (human; Epstein-Barr virus); assay: cell-based or functional assay
[2] = target: P19 peptide (mixture of 19 endogenous control peptides) loaded T2 cell; assay: flow cytometry, phage antibody on peptide loaded T2 cells
[3] = target: EBV-LMP2 peptide presented by HLA-A*02:06 on artificial antigen presenting cells (human; Epstein-Barr virus)

B1: LMP2-38 Dimeric BsAb (bispecific antibody, part only)
VH: QSALTQPASVSGSPGQSITISCTGTSSDVGSYNDVSWYQQHPGKAPKLMIYDVSNRPSGVSNRFSGSKSGNTASLTISGLQTEDEADYYCNSYTSSNTYVFGTGTKVTVLG
VL: QVQLVQSGAEVKKPGASVQVSCRASGYTITSYYMHWVRQAPGQGLEWMGVINPNAGSTRYAQKFQGRVTMSTDTSTSTVYMALSSLRSDDTAVYYCARGMYRMYDWGQGTLVTVSS
chain 1: DVQLVQSGAEVKKPGASVKVSCKASGYTFTRYTMHWVRQAPGQGLEWIGYINPSRGYTNYADSVKGRFTITTDKSTSTAYMELSSLRSEDTATYYCARYYDDHYSLDYWGQGTTVTVSSGEGTSTGSGGSGGSGGADDIVLTQSPATLSLSPGERATLSCRASQSVSYMNWYQQKPGKAPKRWIYDTSKVASGVPARFSGSGSGTDYSLTINSLEAEDAATYYCQQWSSNPLTFGGGTKVEIK
chain 2: RTPLGDTTHTSGMVSKLSQLQTELLAALLESGLSKEALIQALGEGSGGAPHHHHHH
**Q.** Which results are given for B1?
**A.** % Max Killing, DT BLCL (T cell dependent cytotoxicity, 51Cr release) [1]: 39.9%; % Max Killing, F BLCL (T cell dependent cytotoxicity, 51Cr release) [1]: 25.8%; % Max Killing, HONE-1-A2 (T cell dependent cytotoxicity, 51Cr release) [1]: 16.8%; % Max Killing, RPMI-6666 (T cell dependent cytotoxicity, 51Cr release) [1]: 26.5%; EC50 (µg/mL), DT BLCL (T cell dependent cytotoxicity) [1]: 0.025 µg/mL; EC50 (µg/mL), F BLCL (T cell dependent cytotoxicity) [1]: 0.033 µg/mL; EC50 (µg/mL), HONE-1-A2 (T cell dependent cytotoxicity) [1]: 0.024 µg/mL; EC50 (µg/mL), RPMI-6666 (T cell dependent cytotoxicity) [1]: 0.037 µg/mL

B2: LMP2-38-11 (antibody, name in Kabat numbering, V domains shown)
VH: B1 VL with G26E, I51V
VL: B1 VH
**Q.** With B2 as the binder, how does the ratio of specific phage antibody FACS signal to negative control FACS signal [2] read?
**A.** 2 to 10

B3: LMP2-38 IgG1 (antibody, V domains shown)
VH: B1 VL
VL: B1 VH
**Q.** B3 was tested. Which number beside the legend entry (name not given; FL2-H histogram) [3] did it give?
**A.** 81.5
